Experimental data from publication PMC3741642.

Target: T1, hEndoV (FLJ35220, human endonuclease V) (Homo sapiens, UniProt Q8N8Q3 1-282)
T1 sequence: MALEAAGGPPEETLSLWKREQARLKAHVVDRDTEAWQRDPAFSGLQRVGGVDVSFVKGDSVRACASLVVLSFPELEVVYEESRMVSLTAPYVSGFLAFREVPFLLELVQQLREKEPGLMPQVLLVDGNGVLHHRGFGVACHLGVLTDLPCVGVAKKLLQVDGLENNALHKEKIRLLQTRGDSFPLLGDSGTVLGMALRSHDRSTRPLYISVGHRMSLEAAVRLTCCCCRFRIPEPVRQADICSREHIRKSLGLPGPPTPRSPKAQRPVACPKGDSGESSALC
Assay: EMSA; 5 mM CaCl2; EMSA: 0.2 nM 32P substrate, 10 mM HEPES-KOH pH 8.0, 1 mM DTT, 2% glycerol, 5 mM CaCl2, 4 °C 30 min; nondenaturing 8% PAGE

B1: dsRNA without inosine (dsRNA)
RNA 1: CUGUAUGAUGAAGAUGCUGAC
RNA 2: GUCAGCAUCUUCAUCAUACAG
B1: binds.
